Test results reported in patent publication US20250027068.

What follows are proteins tested against pooled human IgG (human IgG1,2,3 and 4).

Protein	Enzyme activity endpoint: Fab′2 [ng/µL]	Enzyme activity endpoint: Fc [ng/µL]	Enzyme activity endpoint: IgG [ng/µL]	Enzyme activity endpoint: scIgG [ng/µL]
PRT-676 (protein) MQITSVWTKGVTPPTMDQFTNYNYDVFHAPYKPGQGWYDITKTFDGKDNLLCGAATAGNMLHWWFDQNKEEIENYLKKHPEKQKIIFNNQKMFDLRKAINTKDSQTNSALFNYFKDKAFPNLSARQKGVMPDLVLDMFINGYYLNLGKTQSTDVNREYQTKDSRGGIFDDVFGRGDQTKLLTARHDLYNGGLNDISQLIKQELSSGKALGLSHTYANVRYSHVINLWGADFDEEGNLEAIYVTDSDDDASIGMKKYYVGKNASGKVAISAKKIEGENIGAQVLGLFTLSSGKEIWQKLSLEHHHHHH	107	136	0	118
PRT-680 (protein) MQITSVWTKGVTPLTPEQFRYNNEDVIHAPYLPHQGWYDITKAFDGKDNLLCGAATAGNMLHWWFDQNKTEIEAYLSKHPEKQKIIFNNQELFDLRAAINTKDSQTNSALFNYFRDKAFPNLSARQLGVMPDLVLDMFINGYYLNVFKTQSTDVNRPYQDKDKRGGIFDAVFTRGDQTTLLTARHDLKNKGLNDISTIIKQELTEGKALALSHTYANVSISHVINLWGADFNAEGNLEAIYVTDSDANASIGMKKYYVGINAHGHVAISAKKIEGENIGAQVLGLFTLSSGKDIWQKLSLEHHHHHH	752	451	0	277
PRT-649 (protein) MQITSVWTKGVTPLTPEQFRYNNEDVIHAPYLAHQGWYDITKAFDGKDNLLCGAATAGNMLHWWFDQNKTEIEAYLSKHPEKQKIIFNNQYLFDLKAAIDTKDSQTNSQLFNYFRDKAFGNLSARQLGVMPDLVLDMFINGYKLKVNKTQSTDVNRPYQKPDNFGGIFDAVFTRGDQTTLLTARHDLKNKGLNDISTIIKQELTEGRALALSHTYANVSISHVINLWGADFNAEGNLEAIYVTDSDANASIGMKKYFVGINAHGHVAISAKKIEGENIGAQVLGLFTLSSGKDIWQKLSLEHHHHHH	657	32	886	24
PRT-675 (protein) MQITSVWTKGVTPPTMDDFTINGEDVFHAPYVANQGWYDITKTFNGKDDLLCGAATAGNMLHWWFDQNKEQIERYLKKHPEKQKIIFNNQEMFDLKEAINTKDSQTDSKLFNYFRDKAFPNLSARQLGVMPDHVLDMFINGYYLNLTKTQSTDVNRPEDTKDLRGGIFDHVFTRGDQSKLLTARHDLKNKTLKEISDLIKQELTEGKALGLSHTYANVRISHVINLWGADFDAEGNLEAIYVTDSDSNASIGMKKYYVGVNSAGKVAISAKKIEGDNIGAQVLGLYTLSTGKDIWQKLSLEHHHHHH	448	400	229	456
PRT-638 (protein) MQITSVWTKGVTPLTPEQFRYNNEDVIHAPYLAHQGWYDITKLNDTGDGLLCGAATAGNMLHWWFDQNKTEIEAYLSKHPEKQKIIFNNQELFDLKAAIDTKDSQTNSQLFNYFRDKAFPNLSARQKGVMPDLVLDMFINGYYLNVFKTQSTDVNRPYQDKDKRGGIFDAVFTRGDQTTLLTARHDLKNKGLNDISTIIKQELTEGRALALSHTYANVSISHVINLWGADFNAEGNLEAIYVTDSNAGNGIGMKKYFVGINAHGHVAISAKKIEGENIGAQVLGLFTLSSGKDIWQKLSLEHHHHHH	550	10	823	17
PRT-673 (protein) MQITSVWTKGVTPPTPEQFRYYNEDVLHAPYKPHQGWYDITKTFNGKDNLLCGAATAGNMLHWWFDQNKTQIEAYLKKYPEKQKIIFNNQKMFDLRKAINTKDSQTNSALFSYFKDKAFPNLSARQRGVMPDLVLDMFINGYYLNVGKTQSTDVNRPYQTRDKRGGIFDHVFGRGDQTKLLTARHDLKNKTLNEISQLIKQELSEGKALALSHTYANVSISHVINLWGADFNAEGNLEAIYVTDSDSDAKIGMKKYYVGKNASGKVAISAKKIEGENIGAQVLGLYTLSTGKDIWQKLSLEHHHHHH	34	252	601	989
PRT-531 (protein) MANQEIRYSEDTPSHITSVWTKGVTPPTQFIQNEDVLHAPYIANQGWYDITKTFNGKDDLLCGAATAGNMLHWWFDQNKEQIEAYLKKYPEKQKINFNGEQMFDVKEAIDTKDSQTDSALFNYFRDKAFPNLSTKHLGVMPDHVIDMFINGYRLNLGNHGPTPVKNQTKDLRGGIFDAVFTRGDQSKLLTARHDFKEKTLKEISQLIKQELTEGKALALSHTYANVRINHVINLWGADFNAEGNLEAIYVTDSDSNASIGMKKYYVGVNAAGKVAISAKEIEGDNIGAQVLGLFTLSSGQDIWQQTNLEHHHHHH	756	212	0	0
PRT-645 (protein) MQITSVWTKGVTPLTPEQFRYNNEDVIHAPYLAHQGWYDITKAFDGKDNLLCGAATAGNMLHWWFDQNKTEIEAYLSKHPEKQKIIFNNQELFDLKAAIDTKDSQTNSQLFNYFRDKAFPNLSARQLGVMPDLVLDMFINGYYLNVFKTQSTDVNRPYQDKDKRGGIFDAVFTRGDQTTLLTARHDLKNKGLNDISTIIKQELTEGRALALSHTYANVSISHVINLWGADFNAEGNLEAIYVTDSDANASIGMKKYYVGYNKSGRVAISAYKITDENIGAQVLGLFTLSSGKDIWQKLSLEHHHHHH	683	455	0	236
PRT-695 (protein) MTITTVWTKGVTPPTPEDFRYNNEDVLHAPYVPNQGWYDITKTFDGKDNLLCGAATAGNMLHWWFDQNKEEIERYLKKYPEKQKIIFNNQELFDVRAAINTKDSQTNSKLFNYFRDKAFPNLSARQLGVMPDLVLDMFINGYYLNLGKTQSTDVNRPYQDRDKRGGIFDAVFNRGDQTTLLTARHDLKNKGLNEISDLIKQELSSGKALALSHTYANVRINHVINLWGADFDAEGNLIAIYVTDSDANASIGMKKYYVGVNANGKVAISAKKIEGDNIGAQVLGLFTLSTGQDIWQKLSLEHHHHHH	781	433	66	0
PRT-669 (protein) MQITSVWTKGVTPPTPEQFTNNNEDVFHAPYLANQGWYDITKTFNGKDNLLCGAATAGNMLHWWFDQNKEQIEAYLKKHPEKQKIIFNNQEMFDLKKAIDTKDSQTNSALFNYFRDKAFPNLSARQLGVMPDLVLDMFINGYYLNVGKTQSTDVNRPYQTKDKRGGIFDAVFTRGDQTKLLTARHDLKNKGLNEISDLIKQELTEGKALALSHTYANVRINHVINLWGADFNAEGNLIAIYVTDSDSNASIGMKKYFVGVNSAGKVAISAKKIEGDNIGAQVLGLFTLSSGQDIWQKLSLEHHHHHH	808	457	0	0
PRT-631 (protein) MQITSVWTKGVTPLTPEQFRYNNEDVIHAPYLAHQGWYDITKAFDGKDNLLCGAATAGNMLHWWFDQNKEEIDNYLKKYPDKQKIIFNNQELFDLKAAIDTKDSQTNSQLFNYFRDKAFPNLSARQLGVMPDLVLDMFINGYYLNVFKTQSTDVNRPYQDKDKRGGIFDAVFTRGDQTTLLTARHDLKNKGLNDISTIIKQELTEGRALALSHTYANVSISHVINLWGADFNAEGNLEAIYVTDSDANASIGMKKYFVGINAHGHVAISAKKIEGENIGAQVLGLFTLSSGKEIWKKLSLEHHHHHH	749	419	0	0
PRT-613 (protein) MQITTVWTKGVTPLTPEQFRYNNEDVIHAPYLAHQGWYDITKAFDGKDNLLCGAATAGNMLHWWFDQNKTEIEAYLSKHPEKQKIIFNNQELFDLKAAISTKDSQTNSQLFNYFRDKAFPNLSARQLGVMPDLVLDMFINGYYLNVFKTQSTDVNRPYQDKDKRGGIFDDVFTRGDQTTLLTARHDLKNGGLNDISTIIKQELTNGRALALSHTYANVSISHVINLWGADFNAEGNLEAIYVTDSDANARIGMKKYGVGINAHGHVAISAKKIEGENIGAQVLGLFTLSSGKDIWQKLSLEHHHHHH	686	433	15	251
PRT-626 (protein) MQITSVWTKGVTPLTPEQFRYNNEDVIHAPYLAHQGWYDITKAFDGKDNLLCGAATAGNMLHWWFDQNKTEIEAYLSKHPEKQKIIFNNQELFDLKAAIDTKDSQTNSQLFNYFRDKAFPNLSARQLGVMPDLVLDMFINGYYLNVFKTQSTDVNRPPDDKDKRGGIFDHVFNRGDQTTLLTARHDLKNKGLNDISTIIKQELTEGRALALSHTYANVSISHVINLWGADFNAEGNLEAIYVTDSDANASIGMKKYFVGINAHGHVAISAKKIEGENIGAQVLGLFTLSSGKDIWQKLSLEHHHHHH	569	388	0	225
PRT-604 (protein) MQITSVWTKGVTPLTPEQFRYNNEDVIHAPYLAHQGWYDITKAFDGKDNLLCGAATAGNMLHWWFDQNKTEIEAYLSKHPEKQKIIFNNQELFDLKAAIDTKDSQTNSQLFNYFRDKAFPNLSARQLGVMPDLVLDMFINGYYLNVFKTQSTDVNRPYQDKDKRGGIFDDVFGKGDQTTLLTARHDLKNKGLNDISTIIKQELTEGRALALSHTYANVSISHVINLWGADFNAEGNLEAIYVTDSDANASIGMKKYFVGINAHGHVAISAKKIEGENIGAQVLGLFTLSSGKDIWQKLSLEHHHHHH	51	276	396	964
